These results are taken from the supplement of paper PMC9170038.

For this data set, the system named is MS2 coat protein. Kind of data set: apparent KD of MS2 coat protein; designed switch direction (-1 OFF switch, 1 ON switch): -1; higher = weaker reporter binding. An outline of the steps:
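The buffer was Tris-HCl pH 7.5 with KCl, MgCl2, BSA, DTT, tRNA and Tween-20. In it, SNAP-549-labelled MS2 coat protein was titrated in doubling steps from 0.7 or 1.5 nM to 3 µM over chip-bound RNA switches transcribed by stalled E. coli RNA polymerase on Illumina chips. Apparent KD is the per-design median over clusters of curve fits to normalised fluorescence.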

The mark [1] stands for this setting: input ligand: microRNA oligo, concentration not stated.
[2] abbreviates: Eterna round: R95, input ligand: microRNA oligo, concentration not stated.
[3] abbreviates: Eterna round: R95, input ligand: FMN 200 uM.
The mark [4] stands for this setting: Eterna round: R95, input ligand: none.

For the sequence “GUACUGAAGCUUUGCUUUAGUCGUACAUGAGGAUCACCCAUGUAGGAUAUGGUAAGCAUAGCUUACUAGAAGGAUAGAGUGAUC [Mat - Exclusion NG 3 - Mod of JL - D65] (Eterna round: R96, puzzle: Exclusion NG 3)”, the “apparent KD of MS2 coat protein” value stood at 169 nM (input ligand: FMN 200 uM), 56.6 nM under setting [1] and 97.8 nM (input ligand: none).

As to “GUACUGACAGGAUAUACAUGAGGAUCACCCAUGUCCUUAGGCUGACAAAAGUCAGCAAGUAGAAGGGUCUGUAC [Omei Ex3 Model Bachelor's Dilema v3] (Eterna round: R97, puzzle: Exclusion 3)”, the “apparent KD of MS2 coat protein” value reads like this: (input ligand: FMN 200 uM) 1500 nM; (input ligand: none) 85.5 nM.

On to “GUACUGACAGGAUAUACAUGAGGAUCACCCAUGUGCCCUUAAUGAUGCAAAGCAUCAAGUAGAAGGGUCUGUAC [Omei Ex3 Model Bachelor's Dilema v22] (Eterna round: R97, puzzle: Exclusion 3)”, for which the “apparent KD of MS2 coat protein” value is 42.5 nM (input ligand: FMN 200 uM) and 32.8 nM (input ligand: none).

In the case of “GUACUGACAGGAUAUACAUGAGGAUCACCCAUGUGCCUUAGCGCUACAAAAGUAGCGCGUAGAAGGGUCUGUAC [Omei Ex3 Model Bachelor's Dilema v16] (Eterna round: R97, puzzle: Exclusion 3)”, the “apparent KD of MS2 coat protein” value runs as follows: (input ligand: FMN 200 uM) 22.4 nM; (input ligand: none) 14.7 nM.

On to “GUACUGACAGGAUAUACAUGAGGAUCACCCAUGUGCCUUAUCGCUACAAAAGUAGCGAGUAGAAGGGUCUGUAC [Omei Ex3 Model Bachelor's Dilema v18] (Eterna round: R97, puzzle: Exclusion 3)”, for which the “apparent KD of MS2 coat protein” value (input ligand: FMN 200 uM) was 27.1 nM and the “apparent KD of MS2 coat protein” value (input ligand: none) turned out to be 16.6 nM.

“GUAGAGUCAGGAUAUACAAGAUCGAAAGAUCGAAGAUCCAUACAUGAGGAUCACCCAUGUAGAAGGGACUCUAC [ChP 11-04-2015 #3] (puzzle: Exclusion 2)”: under setting [2], the “apparent KD of MS2 coat protein” value amounted to 16.9 nM.

With “GUAGAGUCAGGAUAUACGAGAUCGAAAGAUCAGCGAUCCUUACAUGAGGAUCACCCAUGUAGAAGGGACUCUAC [Omei mod 11 to Eli's favorate candidate (ch.parushev)] (Eterna round: R97, puzzle: Exclusion 2)”, the “apparent KD of MS2 coat protein” value came to 254 nM (input ligand: FMN 200 uM) and 24.3 nM (input ligand: none).

With “GUAGAGUCAGGAUAUACGAGAUCGAAAGAUCAGUGGUCCUUACAUGAGGAUCACCCAUGUAGAAGGGACUCUAC [Omei mod 12 to Eli's favorate candidate (ch.parushev)] (Eterna round: R97, puzzle: Exclusion 2)”, the “apparent KD of MS2 coat protein” value (input ligand: FMN 200 uM) was found to be 39.6 nM and the “apparent KD of MS2 coat protein” value (input ligand: none) worked out at 790 nM.

Regarding “GUAGAGUGAGGAUAUACGAGAUCGAAAGAUCGGCGAUCCAUACAUGAGGAUCACCCAUGUAGAAGGCACUCUAC [Eli x2 4.002] (Eterna round: R97, puzzle: Exclusion 2)”, the “apparent KD of MS2 coat protein” value reads like this: (input ligand: FMN 200 uM) 521 nM; (input ligand: none) 26.3 nM.

In the case of “GUAGUGUUAGGAUAUCUGCCUCCGAGGUAUUCCAUGAAUAGAGAGAAGGGACAUGAGGAUCACCCAUGUGGGUA [Eternabot (L2) Solution 92] (Eterna round: R97, puzzle: Exclusion 4)”, the “apparent KD of MS2 coat protein” value is, setting by setting: (input ligand: FMN 200 uM) 90.5 nM; (input ligand: none) 295 nM.

For the sequence “GUAGUUCGAGUUAGGAUAUGAUUAAAAUUCGGAUAUCAGAAGGAACUUGAGGAUCACCCAAGUAUAGAUGAUUC [JR_BMEx4_Sub058] (Eterna round: R97, puzzle: Brourd's mod of Exclusion 4)”, the “apparent KD of MS2 coat protein” value was 91.6 nM (input ligand: FMN 200 uM) and 38.1 nM (input ligand: none).

Take “GUAUAACAUGAGGAUCACCCAUGUGAGGAUAUGCGAAUUUCAUCAAAAGAUGAAAUUUGCAGAAGGCACAGUAC [Omei Ex1 A12] (Eterna round: R97, puzzle: Exclusion 1)”: the “apparent KD of MS2 coat protein” value (input ligand: FMN 200 uM) worked out at 93 nM and the “apparent KD of MS2 coat protein” value (input ligand: none) was 66.3 nM.

Take “GUAUAACUACACGGGCUCAACAUGAGGAUCACCCAUGUCACAUACGCAAGCUUUUUGCUUGUCUUAUCUGUCCGUGA [Quleorraa] (puzzle: Sensor v3, turn-off variant 1)”: the “apparent KD of MS2 coat protein” value was determined as 12.3 nM under setting [3], 11.9 nM under setting [2] and 10.7 nM under setting [4].

“GUAUAGCGAGGAUAUACAUGAGGAUCACCCAUGUGAUCCUUAGGCUGUACAAGCCAAUGUAGAAGGCGCAAAUU [jl-ex3.4.59 ViennaUCT mod] (Eterna round: R97, puzzle: Exclusion 3)”: the “apparent KD of MS2 coat protein” value worked out at 75.7 nM (input ligand: FMN 200 uM) and 147 nM (input ligand: none).

In the case of “GUCAACGCAGGAUAUUAGAACUUUUACAUGAGGAUCACCCAUGUUAAUUGGGUCUAAGAAUAAGAAGGGCGAUGAA [JR_Ex5_Sub011] (Eterna round: R97, puzzle: Exclusion 5)”, the “apparent KD of MS2 coat protein” value reads like this: (input ligand: FMN 200 uM) 15.8 nM; (input ligand: none) 14 nM.

Turning to “GUCACAUGGACAUAGGAUCACAUGAGGAUCACCCAUGUGACUAACAAGCUUUUUGUUCGUCUUAUGUCUAUGUGAAU [Stov1/16-B2] (Eterna round: R97, puzzle: Sensor, turn-off variant 1)”, the “apparent KD of MS2 coat protein” value is, setting by setting: (input ligand: FMN 200 uM) 13.2 nM; (input ligand: none) 12.3 nM.

For the sequence “GUCAGCUCGUCAGGAUAUACAUGCGUGCUUCGGCACGUAUGAUAGAUCACAUGAGGAUCACCCAUGUAGAAGGGACGAGCUGAC [ENG2/4-B1] (Eterna round: R96, puzzle: Exclusion NG 2)”, the “apparent KD of MS2 coat protein” value is, setting by setting: (input ligand: FMN 200 uM) 13.2 nM; under setting [1], 9.92 nM; (input ligand: none) 12.5 nM.

Turning to “GUCAGCUCGUCAGGAUAUAUUAACAUGAGGAUCACCCAUGUAAGAUCAGGCUUCGGCCAAUGUUAAUAGAAGGGACGAGCUGAC [ENG2/12-B1] (Eterna round: R96, puzzle: Exclusion NG 2)”, the “apparent KD of MS2 coat protein” value is, setting by setting: (input ligand: FMN 200 uM) 132 nM; under setting [1], 745 nM; (input ligand: none) 438 nM.

For “GUCAGCUCGUCAGGAUAUGAACAUGAGGAUCACCCAUGUAAGAUCAAGCUGCUUCGGCAGCAAGUUCAGAAGGGACGAGCUGAU [ENG2/10-B2] (Eterna round: R96, puzzle: Exclusion NG 2)”, the “apparent KD of MS2 coat protein” value is, setting by setting: (input ligand: FMN 200 uM) 167 nM; under setting [1], 136 nM; (input ligand: none) 104 nM.

Take “GUCAGCUCGUGAGGAUAUACAUGCGUGCUUCGGCACGAAUUUAAGAUCACAUGAGGAUCACCCAUGUAGAAGGCACGAGCUGAC [ENG2/3-A1] (Eterna round: R96, puzzle: Exclusion NG 2)”: the “apparent KD of MS2 coat protein” value by setting is: (input ligand: FMN 200 uM) 137 nM; under setting [1], 472 nM; (input ligand: none) 591 nM.

Consider “GUCAGCUCGUGAGGAUAUACAUGCGUGCUUCGGCACGUAUGAUAGAUCACAUGAGGAUCACCCAUGUAGAAGGCACGAGCUGAC [ENG2/4-A1] (Eterna round: R96, puzzle: Exclusion NG 2)”, for which the “apparent KD of MS2 coat protein” value by setting is: (input ligand: FMN 200 uM) 18.8 nM; under setting [1], 11.1 nM; (input ligand: none) 12.9 nM.

Consider “GUCAGCUCGUGAGGAUAUAUAUACAUGAGGAUCACCCAUGUAAGAUCAGGCUUCGGCCAAUGUAUAUAGAAGGCACGAGCUGAU [ENG2/11-A2] (Eterna round: R96, puzzle: Exclusion NG 2)”, for which the “apparent KD of MS2 coat protein” value (input ligand: FMN 200 uM) was found to be 847 nM, the “apparent KD of MS2 coat protein” value under setting [1] amounted to 695 nM and the “apparent KD of MS2 coat protein” value (input ligand: none) was found to be 1120 nM.

With “GUCAGGAAUGUAGGAUAUCUGCACGAUUAGUGCAGAGAAGGACAUGAGGAUCACCCAUGUAUAGUAGCUUCGGCUACACCUGAC [ENG1-A1] (Eterna round: R96, puzzle: Exclusion NG 1)”, the “apparent KD of MS2 coat protein” value came to 16.7 nM (input ligand: FMN 200 uM), 14 nM under setting [1] and 19.5 nM (input ligand: none).

Regarding “GUCAUCACACAUGGGAUCAACAUGAGGAUCACCCAUGUUGCCAAGUUGUUUGCACGUCUUAUCAUACGUUUUUCGAU [Mod-Jxi] (Eterna round: R97, puzzle: Sensor, turn-off variant 1)”, the “apparent KD of MS2 coat protein” value runs as follows: (input ligand: FMN 200 uM) 22.2 nM; (input ligand: none) 22.7 nM.

For “GUCCAGGCAGGAUAUGUACAGGAGCACUUGAGGAUCACCCAAGUCCUCGUGUUGUUGUCAGCAGAAGGGCCCAUUA [Dizaquin] (Eterna round: R97, puzzle: Exclusion 5)”, the “apparent KD of MS2 coat protein” value came out at 529 nM (input ligand: FMN 200 uM) and 187 nM (input ligand: none).

Take “GUCCUACAUGAGGAUCACCCAUGUAAGGAUAUGCUAGCGGUCGGCUGACUGACUGCUAGCAGAAGGUACAUGAU (puzzle: Exclusion 1)”: the “apparent KD of MS2 coat protein” value under setting [2] came to 15.6 nM.

Regarding “GUCCUCAUGACGCCUAAACACAUGAGGAUCACCCAUGUACAGGCUUUUUGUCGUCUUAUAAUAAAACCGAGGAUGCG [Xelaanen] (puzzle: Sensor v3, turn-off variant 1)”, the “apparent KD of MS2 coat protein” value was 24.4 nM under setting [3], 319 nM under setting [2] and 29.8 nM under setting [4].

For “GUCCUGCAGCUUUGCUGUAGGCGUACAUGAGGAUCACCCAUGUAGGAUAUGGUAGGCUUUGCUUACUAGAAGGAUAGAGUGAUC [JL EXNG3 1.28] (Eterna round: R96, puzzle: Exclusion NG 3)”, the “apparent KD of MS2 coat protein” value is, setting by setting: (input ligand: FMN 200 uM) 43.1 nM; under setting [1], 7.08 nM; (input ligand: none) 38.4 nM.

On to “GUCCUGGACUAUCACAAGCACAUGAGGAUCACCCAUGUCAUGGGUAGAUCCCUAAAUAAAGAUACUGCUCGUCUUAU [Cac sensor turnoff var1 sub6] (Eterna round: R97, puzzle: Sensor, turn-off variant 1)”, for which the “apparent KD of MS2 coat protein” value reads like this: (input ligand: FMN 200 uM) 160 nM; (input ligand: none) 300 nM.

With “GUCCUGGACUAUCACAAGCACAUGAGGAUCACCCAUGUCAUGGGUGGGUCACUAAGUACGGCUACUGCUCGUCUUAU [Cac Sensor turn off var1 sub8] (Eterna round: R97, puzzle: Sensor, turn-off variant 1)”, the “apparent KD of MS2 coat protein” value runs as follows: (input ligand: FMN 200 uM) 436 nM; (input ligand: none) 495 nM.
